Source: the supplement of paper PMC9233669
Variants at the floor of the assay were thinned out.

Legend:
biotinyl-Phe-oxazolone = test: self-aminoacylation, catalytic enhancement (BFO) (fold over background); higher = more active; k-Seq, kA / k0A0; sequences stand for … in GGGAAUGGAUCCACAUCUACGAAUUC…UUCACUGCAGACUUGACGAAGCUG
Method in brief: (§1)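 Each biotinyl-aminoacyl-oxazolone, at 2–1250 μM, was incubated with mutagenized RNA pools (0.43 μM) carrying a 21-nt variable region. The 50 μL reactions contained HEPES/NaCl/KCl/MgCl2/CaCl2 buffer with 5% acetonitrile at pH 6.9–7.0 and ran for 90 minutes at room temperature. After streptavidin capture, RNA was measured by qPCR in triplicate and by Illumina sequencing, and catalytic enhancement was calculated as median kA over the uncatalyzed rate from a pseudo-first-order fit of per-sequence fraction reacted.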

biotinyl-Ile-oxazolone = test: self-aminoacylation, catalytic enhancement (BIO) (fold over background); higher = more active; k-Seq, kA / k0A0; sequences stand for … in GGGAAUGGAUCCACAUCUACGAAUUC…UUCACUGCAGACUUGACGAAGCUG
Method in brief: as §1

biotinyl-Met-oxazolone = test: self-aminoacylation, catalytic enhancement (BMO) (fold over background); higher = more active; k-Seq, kA / k0A0; sequences stand for … in GGGAAUGGAUCCACAUCUACGAAUUC…UUCACUGCAGACUUGACGAAGCUG
Method in brief: as §1

biotinyl-Val-oxazolone = test: self-aminoacylation, catalytic enhancement (BVO) (fold over background); higher = more active; k-Seq, kA / k0A0; sequences stand for … in GGGAAUGGAUCCACAUCUACGAAUUC…UUCACUGCAGACUUGACGAAGCUG
Method in brief: as §1

biotinyl-Leu-oxazolone = test: self-aminoacylation, catalytic enhancement (BLO) (fold over background); higher = more active; k-Seq, kA / k0A0; sequences stand for … in GGGAAUGGAUCCACAUCUACGAAUUC…UUCACUGCAGACUUGACGAAGCUG
Method in brief: as §1

biotinyl-Trp-oxazolone = test: self-aminoacylation, catalytic enhancement (BWO) (fold over background); higher = more active; k-Seq, kA / k0A0; sequences stand for … in GGGAAUGGAUCCACAUCUACGAAUUC…UUCACUGCAGACUUGACGAAGCUG
Method in brief: as §1

Sequence “AAGUUUGUUGAUAGUCGCAAG [Fam3.1 aminoacylation ribozyme variant]” has a self-aminoacylation (biotinyl-Phe-oxazolone) of 1.36, a self-aminoacylation (biotinyl-Ile-oxazolone) of 1.14 and a self-aminoacylation (biotinyl-Met-oxazolone) of 1.09. It also gave a self-aminoacylation (biotinyl-Val-oxazolone) of 1.09, a self-aminoacylation (biotinyl-Leu-oxazolone) of 1.09 and a self-aminoacylation (biotinyl-Trp-oxazolone) of 1.19.
Sequence “AAGUUUGCUAAGAGUCGCAUG [Fam3.1 aminoacylation ribozyme variant]” has a self-aminoacylation (biotinyl-Phe-oxazolone) of 1.82, a self-aminoacylation (biotinyl-Ile-oxazolone) of 0.902 and a self-aminoacylation (biotinyl-Met-oxazolone) of 1.07. For the same sequence, the self-aminoacylation (biotinyl-Val-oxazolone) was 1.1, the self-aminoacylation (biotinyl-Leu-oxazolone) was 1.03 and the self-aminoacylation (biotinyl-Trp-oxazolone) was 1.69.
“AAGUUUGCUAAUAGUCCCAAU [Fam3.1 aminoacylation ribozyme variant]” was tested, and the self-aminoacylation (biotinyl-Phe-oxazolone) was 1.36, the self-aminoacylation (biotinyl-Ile-oxazolone) was 1.3 and the self-aminoacylation (biotinyl-Met-oxazolone) was 0.987. It also gave a self-aminoacylation (biotinyl-Val-oxazolone) of 0.912, a self-aminoacylation (biotinyl-Leu-oxazolone) of 1 and a self-aminoacylation (biotinyl-Trp-oxazolone) of 1.28.
With “CUACUUUAAACAAUCGGUCUU [Fam1A.1 aminoacylation ribozyme variant]” the self-aminoacylation (biotinyl-Phe-oxazolone) was 0.805, the self-aminoacylation (biotinyl-Ile-oxazolone) was 0.888 and the self-aminoacylation (biotinyl-Met-oxazolone) was 1.09. It also gave a self-aminoacylation (biotinyl-Val-oxazolone) of 0.885, a self-aminoacylation (biotinyl-Leu-oxazolone) of 0.738 and a self-aminoacylation (biotinyl-Trp-oxazolone) of 0.6.
“CGACACUUCAAGCAAUCGGUA [Fam1B.1 aminoacylation ribozyme variant]” showed a self-aminoacylation (biotinyl-Phe-oxazolone) of 2.02, a self-aminoacylation (biotinyl-Ile-oxazolone) of 1.86 and a self-aminoacylation (biotinyl-Met-oxazolone) of 1.44. For the same sequence, the self-aminoacylation (biotinyl-Val-oxazolone) was 1.84, the self-aminoacylation (biotinyl-Leu-oxazolone) was 1.41 and the self-aminoacylation (biotinyl-Trp-oxazolone) was 2.9.
“AAGUUUGCUAACCGUCGCAAG [Fam3.1 aminoacylation ribozyme variant]” gave a self-aminoacylation (biotinyl-Phe-oxazolone) of 0.981, a self-aminoacylation (biotinyl-Ile-oxazolone) of 0.714 and a self-aminoacylation (biotinyl-Met-oxazolone) of 0.567. The self-aminoacylation (biotinyl-Val-oxazolone) was 0.754, the self-aminoacylation (biotinyl-Leu-oxazolone) was 0.755 and the self-aminoacylation (biotinyl-Trp-oxazolone) was 0.488.
Sequence “AUUUAUCUAGGUCAUCGGGUG [Fam2.2 aminoacylation ribozyme variant]” has a self-aminoacylation (biotinyl-Phe-oxazolone) of 20.1, a self-aminoacylation (biotinyl-Ile-oxazolone) of 3.08 and a self-aminoacylation (biotinyl-Met-oxazolone) of 3.91. The self-aminoacylation (biotinyl-Val-oxazolone) was 2.45, the self-aminoacylation (biotinyl-Leu-oxazolone) was 4.97 and the self-aminoacylation (biotinyl-Trp-oxazolone) was 4.3.
Work on “AUGACCCUGGACAUCGAGUGA [Fam2.1 aminoacylation ribozyme variant]” yielded a self-aminoacylation (biotinyl-Phe-oxazolone) of 15.9, a self-aminoacylation (biotinyl-Ile-oxazolone) of 2.27 and a self-aminoacylation (biotinyl-Met-oxazolone) of 5.12. For the same sequence, the self-aminoacylation (biotinyl-Val-oxazolone) was 2.11, the self-aminoacylation (biotinyl-Leu-oxazolone) was 3.95 and the self-aminoacylation (biotinyl-Trp-oxazolone) was 5.26.
In the case of “AAGUUUGCUAAUAGCCGCCAG [Fam3.1 aminoacylation ribozyme variant]”, the self-aminoacylation (biotinyl-Phe-oxazolone) is reported as 0.63, the self-aminoacylation (biotinyl-Ile-oxazolone) is reported as 1.52 and the self-aminoacylation (biotinyl-Met-oxazolone) is reported as 1.1. The self-aminoacylation (biotinyl-Val-oxazolone) was 1.45, the self-aminoacylation (biotinyl-Leu-oxazolone) was 1.03 and the self-aminoacylation (biotinyl-Trp-oxazolone) was 1.21.
Work on “AUUACCCCGGUCAUUGAGUGA [Fam2.1 aminoacylation ribozyme variant]” yielded a self-aminoacylation (biotinyl-Phe-oxazolone) of 43.9, a self-aminoacylation (biotinyl-Ile-oxazolone) of 3.22 and a self-aminoacylation (biotinyl-Met-oxazolone) of 7.29. For the same sequence, the self-aminoacylation (biotinyl-Val-oxazolone) was 3.79, the self-aminoacylation (biotinyl-Leu-oxazolone) was 6.53 and the self-aminoacylation (biotinyl-Trp-oxazolone) was 8.47.
Work on “CCACACUUCAAGCAGUCGGUG [Fam1B.1 aminoacylation ribozyme variant]” yielded a self-aminoacylation (biotinyl-Phe-oxazolone) of 18.4, a self-aminoacylation (biotinyl-Ile-oxazolone) of 2.18 and a self-aminoacylation (biotinyl-Met-oxazolone) of 2.34. It also gave a self-aminoacylation (biotinyl-Val-oxazolone) of 2.29, a self-aminoacylation (biotinyl-Leu-oxazolone) of 3.56 and a self-aminoacylation (biotinyl-Trp-oxazolone) of 2.1.
With “AUUACCCUGGUCAUCCAGUUA [Fam2.1 aminoacylation ribozyme variant]” the self-aminoacylation (biotinyl-Phe-oxazolone) was 0.726, the self-aminoacylation (biotinyl-Ile-oxazolone) was 0.875 and the self-aminoacylation (biotinyl-Met-oxazolone) was 0.914. It also gave a self-aminoacylation (biotinyl-Val-oxazolone) of 1.08, a self-aminoacylation (biotinyl-Leu-oxazolone) of 0.855 and a self-aminoacylation (biotinyl-Trp-oxazolone) of 0.433.
In the case of “CCACAAUUCGAGCAAUCGGUC [Fam1B.1 aminoacylation ribozyme variant]”, the self-aminoacylation (biotinyl-Phe-oxazolone) is reported as 0.736, the self-aminoacylation (biotinyl-Ile-oxazolone) is reported as 1.28 and the self-aminoacylation (biotinyl-Met-oxazolone) is reported as 0.985. For the same sequence, the self-aminoacylation (biotinyl-Val-oxazolone) was 1.58, the self-aminoacylation (biotinyl-Leu-oxazolone) was 1.07 and the self-aminoacylation (biotinyl-Trp-oxazolone) was 1.08.
For “CUACUUCAAACCAUCGGUCAG [Fam1A.1 aminoacylation ribozyme variant]”, the self-aminoacylation (biotinyl-Phe-oxazolone) was 0.853, the self-aminoacylation (biotinyl-Ile-oxazolone) was 0.67 and the self-aminoacylation (biotinyl-Met-oxazolone) was 0.609. The self-aminoacylation (biotinyl-Val-oxazolone) was 0.771, the self-aminoacylation (biotinyl-Leu-oxazolone) was 0.488 and the self-aminoacylation (biotinyl-Trp-oxazolone) was 0.762.
“CUACUUCAAACAACCGGUCUU [Fam1A.1 aminoacylation ribozyme variant]” gave a self-aminoacylation (biotinyl-Phe-oxazolone) of 0.875, a self-aminoacylation (biotinyl-Ile-oxazolone) of 1.32 and a self-aminoacylation (biotinyl-Met-oxazolone) of 0.686. The self-aminoacylation (biotinyl-Val-oxazolone) was 0.899, the self-aminoacylation (biotinyl-Leu-oxazolone) was 0.871 and the self-aminoacylation (biotinyl-Trp-oxazolone) was 1.05.
“AUUACCCUGGCCAUAGAGUGA [Fam2.1 aminoacylation ribozyme variant]” gave a self-aminoacylation (biotinyl-Phe-oxazolone) of 5.34, a self-aminoacylation (biotinyl-Ile-oxazolone) of 2.6 and a self-aminoacylation (biotinyl-Met-oxazolone) of 4.15. For the same sequence, the self-aminoacylation (biotinyl-Val-oxazolone) was 2.51, the self-aminoacylation (biotinyl-Leu-oxazolone) was 4.73 and the self-aminoacylation (biotinyl-Trp-oxazolone) was 6.32.
“AUUACCCUGGUCAUCGUGAGA [Fam2.1 aminoacylation ribozyme variant]” showed a self-aminoacylation (biotinyl-Phe-oxazolone) of 0.858, a self-aminoacylation (biotinyl-Ile-oxazolone) of 0.703 and a self-aminoacylation (biotinyl-Met-oxazolone) of 0.897. The self-aminoacylation (biotinyl-Val-oxazolone) was 0.789, the self-aminoacylation (biotinyl-Leu-oxazolone) was 0.777 and the self-aminoacylation (biotinyl-Trp-oxazolone) was 0.867.
In the case of “CCAGACGUCAAGCAAUCGGUC [Fam1B.1 aminoacylation ribozyme variant]”, the self-aminoacylation (biotinyl-Phe-oxazolone) is reported as 0.503, the self-aminoacylation (biotinyl-Ile-oxazolone) is reported as 1.24 and the self-aminoacylation (biotinyl-Met-oxazolone) is reported as 1.52. The self-aminoacylation (biotinyl-Val-oxazolone) was 1.99, the self-aminoacylation (biotinyl-Leu-oxazolone) was 1.99 and the self-aminoacylation (biotinyl-Trp-oxazolone) was 0.65.
“CUACUACAAACAAUAGGUCUG [Fam1A.1 aminoacylation ribozyme variant]” showed a self-aminoacylation (biotinyl-Phe-oxazolone) of 0.827, a self-aminoacylation (biotinyl-Ile-oxazolone) of 0.826 and a self-aminoacylation (biotinyl-Met-oxazolone) of 0.635. It also gave a self-aminoacylation (biotinyl-Val-oxazolone) of 0.94, a self-aminoacylation (biotinyl-Leu-oxazolone) of 0.718 and a self-aminoacylation (biotinyl-Trp-oxazolone) of 0.456.
With “AUUCACCUAGGUGAUCGGUUG [Fam2.2 aminoacylation ribozyme variant]” the self-aminoacylation (biotinyl-Phe-oxazolone) was 3.17, the self-aminoacylation (biotinyl-Ile-oxazolone) was 0.875 and the self-aminoacylation (biotinyl-Met-oxazolone) was 0.928. It also gave a self-aminoacylation (biotinyl-Val-oxazolone) of 0.921, a self-aminoacylation (biotinyl-Leu-oxazolone) of 0.93 and a self-aminoacylation (biotinyl-Trp-oxazolone) of 1.03.
In the case of “AUGUUUGAUAAUAGUCGCAAG [Fam3.1 aminoacylation ribozyme variant]”, the self-aminoacylation (biotinyl-Phe-oxazolone) is reported as 1.59, the self-aminoacylation (biotinyl-Ile-oxazolone) is reported as 1.65 and the self-aminoacylation (biotinyl-Met-oxazolone) is reported as 1.35. The self-aminoacylation (biotinyl-Val-oxazolone) was 1.17, the self-aminoacylation (biotinyl-Leu-oxazolone) was 1.09 and the self-aminoacylation (biotinyl-Trp-oxazolone) was 1.45.
For “AUUACCCGGGUCAUGGAGUGA [Fam2.1 aminoacylation ribozyme variant]”, the self-aminoacylation (biotinyl-Phe-oxazolone) was 25.8, the self-aminoacylation (biotinyl-Ile-oxazolone) was 2.82 and the self-aminoacylation (biotinyl-Met-oxazolone) was 4.26. The self-aminoacylation (biotinyl-Val-oxazolone) was 2.87, the self-aminoacylation (biotinyl-Leu-oxazolone) was 4.59 and the self-aminoacylation (biotinyl-Trp-oxazolone) was 4.98.
“CCACACUUCAAACAAUCGGUA [Fam1B.1 aminoacylation ribozyme variant]” showed a self-aminoacylation (biotinyl-Phe-oxazolone) of 1.62, a self-aminoacylation (biotinyl-Ile-oxazolone) of 0.873 and a self-aminoacylation (biotinyl-Met-oxazolone) of 0.947. It also gave a self-aminoacylation (biotinyl-Val-oxazolone) of 1.02, a self-aminoacylation (biotinyl-Leu-oxazolone) of 0.734 and a self-aminoacylation (biotinyl-Trp-oxazolone) of 1.47.
“AUUCACCUAGGUCUGCGGGUG [Fam2.2 aminoacylation ribozyme variant]” was tested, and the self-aminoacylation (biotinyl-Phe-oxazolone) was 12.8, the self-aminoacylation (biotinyl-Ile-oxazolone) was 3.08 and the self-aminoacylation (biotinyl-Met-oxazolone) was 4.69. The self-aminoacylation (biotinyl-Val-oxazolone) was 2.58, the self-aminoacylation (biotinyl-Leu-oxazolone) was 4.85 and the self-aminoacylation (biotinyl-Trp-oxazolone) was 3.44.
In the case of “CCACACUCCAAGGAAUCGGUC [Fam1B.1 aminoacylation ribozyme variant]”, the self-aminoacylation (biotinyl-Phe-oxazolone) is reported as 1.46, the self-aminoacylation (biotinyl-Ile-oxazolone) is reported as 1.35 and the self-aminoacylation (biotinyl-Met-oxazolone) is reported as 1.32. The self-aminoacylation (biotinyl-Val-oxazolone) was 1.31, the self-aminoacylation (biotinyl-Leu-oxazolone) was 1.08 and the self-aminoacylation (biotinyl-Trp-oxazolone) was 1.34.
For “AUUCCCCUAGGUCGUCGGGUG [Fam2.2 aminoacylation ribozyme variant]”, the self-aminoacylation (biotinyl-Phe-oxazolone) was 31.9, the self-aminoacylation (biotinyl-Ile-oxazolone) was 5.97 and the self-aminoacylation (biotinyl-Met-oxazolone) was 7.13. The self-aminoacylation (biotinyl-Val-oxazolone) was 5.97, the self-aminoacylation (biotinyl-Leu-oxazolone) was 9.19 and the self-aminoacylation (biotinyl-Trp-oxazolone) was 7.42.
